{
  "source": "paper PMC6894070",
  "about": "“The Plasmodium falciparum Hsp70-x chaperone assists the heat stress response of the malaria parasite” (The FASEB Journal, 2019)",
  "target": "Plasmodium falciparum Hsp70-x (PfHsp70-x), full-length construct aa 25-679 (P. falciparum) (UniProt K7NTP5)",
  "data": [
    {"substance": "J-domain of P. falciparum Hsp40 cochaperone PFE0055c (PFE0055cJ), aa 77-148 (domain or fragment)", "values": [
      {"measurement": "apparent dissociation constant from titrating the cochaperone in ATP hydrolysis assays (5 μM chaperone, single-site binding fit)", "value": 3, "unit": "µM"}
    ]}
  ]
}
